Experiment [1] deals with Cynomolgus monkey IL-33 (cynomolgus monkey). Nature of the experiment: cell-based or functional assay.
The target in experiment [2] is T1, Human IL-33 (human, UniProt O95760 95-270, limits assumed).
T1 sequence: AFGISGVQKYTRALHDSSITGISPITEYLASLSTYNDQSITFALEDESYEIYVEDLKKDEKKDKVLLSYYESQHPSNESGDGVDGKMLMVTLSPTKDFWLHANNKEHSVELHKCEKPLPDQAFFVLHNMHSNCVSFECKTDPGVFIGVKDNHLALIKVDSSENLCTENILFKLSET
Nature of the experiment: cell-based or functional assay.

Experiment [3] deals with T2, Cynomolgus monkey IL-33 (cynomolgus monkey, UniProt A0A2K5W3I1 95-269).
T2 sequence: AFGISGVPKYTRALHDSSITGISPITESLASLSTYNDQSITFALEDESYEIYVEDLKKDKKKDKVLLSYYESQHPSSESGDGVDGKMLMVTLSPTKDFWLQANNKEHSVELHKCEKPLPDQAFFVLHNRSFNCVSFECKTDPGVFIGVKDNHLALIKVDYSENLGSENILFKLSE
Nature of the experiment: cell-based or functional assay.

In experiment [4] the target is T1, Human IL-33. Nature of the experiment: cell-based or functional assay. This is another data set of the same source.
The target in experiment [5] is T1, Human IL-33. Nature of the experiment: cell-based or functional assay. The source holds these as a separate data set.
The target in experiment [6] is T2, Cynomolgus monkey IL-33. Nature of the experiment: SPR (Biacore T100/T200), antibody captured on Protein A, 37° C., 1:1 model. How it is done:
(§1) A CM4 chip containing immobilized Protein A (generated using standard NHS-EDC amine coupling) on all four flow cells (Fc) is used to employ a capture method. Antibody samples are prepared at 10 μg/mL in running buffer. Mouse, rat, and rabbit IL-33 samples are prepared at final concentrations of 1000, 500, 250, 125, 63, 31, 16, and 0 nM in running buffer. Human and Cynomologus IL-33 samples are prepared at final concentrations of 250, 125, 63, 31, 16, 8, 4, 2, 1, and 0 nM in running buffer. Each analysis cycle involves the steps of (1) capturing antibody samples on separate flow cells (Fc2, Fc3, or Fc4); (2) injecting 200 μL of IL-33 over all flow cells at 100 μL/min; (3) returning to buffer flow for a minimum of 10 min at 100 μL/min to monitor complex dissociation; (4) regenerating the chip surface with two sequential injections of 7.5 microliters of glycine, pH1.5; and (5) equilibrating the chip surface for 5 minutes prior to repeating the cycle. Each IL-33 concentration is injected in duplicate. Data is processed using standard double-referencing and fit to a 1:1 binding model using Biacore T100 Evaluation software, version 2.0.1, to determine the association rate (on-rate, kₒₙ, M⁻¹s⁻¹ units) and the dissociation rate (off-rate, koff, s⁻¹ units). The equilibrium dissociation constant (KD) is calculated from the relationship KD=koff/kₒₙ, and is in molar units. Three experimental replicates (n) are conducted for the binding of Antibody 43 to human and cynomolgus monkey IL-33.

The target in experiment [7] is T1, Human IL-33. The experiment is described as above. The protocol: as §1
Another experiment addresses T3, IL-18 (human, UniProt Q14116 37-193).
T3 sequence (looked up): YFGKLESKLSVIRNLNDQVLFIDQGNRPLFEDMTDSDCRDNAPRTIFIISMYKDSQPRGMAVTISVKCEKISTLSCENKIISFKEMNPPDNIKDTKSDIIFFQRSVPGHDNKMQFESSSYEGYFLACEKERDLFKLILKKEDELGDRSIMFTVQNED
Nature of the experiment: SPR (BIAcore 2000), antibody captured on Protein A, analyte at 500 nM. The protocol: (§2) Protein A (Calbiochem) is coupled via free amine groups to carboxyl groups on flow cells 1 and 2 of a CM5 biosensor chip (GE Healthcare) using a mixture of N-ethyl-N-(dimethylaminopropyl)-carbodiimide (EDC) and N-hydroxysuccinimide (NHS). To capture positive control antibodies, Rabbit anti-Goat IgG (Fc specific) is coupled to flow cell 3, and Rabbit anti-Rat IgG (Fc specific) is coupled to flow cell 4 (both from Jackson ImmunoResearch). Flow cells are monitored with a flow rate of 30 μL/minute using a buffer containing 0.01 M HEPES, pH 7.4, 150 mM NaCl, 0.005% surfactant P20. Antibody 43 is captured on flow cell 2 to yield a total of 300 to 800 response units (RU; results reflect flow cell 2 minus flow cell 1). Binding tests are followed by a regeneration step using glycine-HCl (pH 1.5) between each cycle. Flow cell 1 is used as a control to monitor non-specific binding of analytes tested. The exemplified antibody is tested with all analytes of the human IL-1 protein family as listed at 500 nM concentration.
A general note: In SPR one partner is held on a chip, and binding of the other changes the refractive index at the surface.

The next experiment addresses T4, IL-36γ (human, UniProt Q9NZH8 18-169).
T4 sequence (looked up): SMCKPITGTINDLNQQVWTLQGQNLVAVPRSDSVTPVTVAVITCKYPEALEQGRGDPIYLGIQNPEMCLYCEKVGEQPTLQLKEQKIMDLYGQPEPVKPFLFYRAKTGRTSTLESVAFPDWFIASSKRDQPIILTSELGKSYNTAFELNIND
The experiment is described as above. The protocol: as §2

The next experiment has as its target IL-1RA (human, UniProt P18510 26-177). The description is as above. The protocol:
as §2

The target of the next experiment is T5, IL-36β (human, UniProt Q9NZH7-2 5-157).
T5 sequence (looked up): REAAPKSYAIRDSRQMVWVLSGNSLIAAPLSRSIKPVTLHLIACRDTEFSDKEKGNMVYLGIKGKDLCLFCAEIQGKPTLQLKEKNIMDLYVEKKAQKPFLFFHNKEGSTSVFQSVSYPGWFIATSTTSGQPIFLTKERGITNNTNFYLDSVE
The experiment is described as above. How it is done:
as §2

The next experiment addresses T6, IL-37 (human, UniProt Q9NZH6 46-218, limits assumed).
T6 sequence (looked up): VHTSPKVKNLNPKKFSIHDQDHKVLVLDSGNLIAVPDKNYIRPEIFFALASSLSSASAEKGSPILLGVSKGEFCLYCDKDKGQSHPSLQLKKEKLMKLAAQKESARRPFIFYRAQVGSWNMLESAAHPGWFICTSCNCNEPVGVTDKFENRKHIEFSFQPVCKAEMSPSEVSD
The experiment is described as above. The protocol:
as §2

Another experiment deals with T7, IL-36α (human, UniProt Q9UHA7 6-158).
T7 sequence (looked up): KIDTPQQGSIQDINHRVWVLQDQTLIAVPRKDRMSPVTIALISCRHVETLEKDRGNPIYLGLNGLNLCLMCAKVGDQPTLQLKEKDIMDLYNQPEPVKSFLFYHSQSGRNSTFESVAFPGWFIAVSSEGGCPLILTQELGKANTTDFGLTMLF
The experiment is described as above. The protocol:
as §2

For a further experiment, the target named is T8, IL-1α (human, UniProt P01583 113-271).
T8 sequence (looked up): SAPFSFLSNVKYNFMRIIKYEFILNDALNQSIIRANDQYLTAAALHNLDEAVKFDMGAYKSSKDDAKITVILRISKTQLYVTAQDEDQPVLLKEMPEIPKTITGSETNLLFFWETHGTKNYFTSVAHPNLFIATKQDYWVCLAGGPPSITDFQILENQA
Described as above. The protocol: as §2

For the next experiment, the target named is IL-1β (human, UniProt P01584 117-269). Described as above. How it is done:
as §2

A further experiment deals with T9, IL-36RA (human, UniProt Q9UBH0 2-155).
T9 sequence (looked up): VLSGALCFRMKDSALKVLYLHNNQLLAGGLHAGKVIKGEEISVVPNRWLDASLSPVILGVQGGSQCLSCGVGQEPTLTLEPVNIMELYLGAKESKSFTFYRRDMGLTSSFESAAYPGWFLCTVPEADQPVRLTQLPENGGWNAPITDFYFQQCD
The experiment is described as above. How it is done: as §2

In experiment [8] the target is T2, Cynomolgus monkey IL-33. Nature of the experiment: SPR (Biacore), antibody captured on Protein A, 37° C., 1:1 model. The protocol:
as §1

Experiment [9] addresses T1, Human IL-33. The experiment is described as above. The protocol:
as §1

Experiment [10] has as its target T2, Cynomolgus monkey IL-33. Nature of the experiment: SPR affinities. How it is done: as §1, with “Three experimental replicates (n) are conducted for the binding of Antibody 43 to human and cynomolgus monkey IL-33.” left out

Positions count from the first letter of the chain named. Read-outs that look alike come from different tables or passages of the source.

The term Kd denotes a measure of binding affinity in units of concentration. The term koff denotes the rate constant with which the complex falls apart. A word on the kon: it is the rate constant with which the complex forms.

IL-1RA, sequence (P18510 26-177 limits assumed): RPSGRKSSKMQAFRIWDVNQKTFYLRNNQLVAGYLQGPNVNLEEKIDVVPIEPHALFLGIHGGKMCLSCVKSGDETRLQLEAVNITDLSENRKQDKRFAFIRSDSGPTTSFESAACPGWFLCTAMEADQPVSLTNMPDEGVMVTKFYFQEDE

“Human monomeric ST2 (IL1RL1) (from UniProt Q01638 19-328) (receptor)” displayed an IC50 in the in vitro NFκB-GEC-luciferase activity assay in [1] of 175 pM. In the experiment with Human IL-33 [2], this molecule came in with an IC50 in the in vitro NFκB-GEC-luciferase activity assay of 426 pM and an IC50 of inhibition of IL-33-induced GM-CSF secretion from human mast cells of 7600 pM.

B1: Antibody 43 (antibody, human IgG4 S228P, kappa, F234A L235A, V domains shown)
VH: EVQLVETGGGLIQPGGSLRLSCAASGFTFSFYAMSWVRQAPGKGLEWVSAISGSGGSTYYADSVKGRFTISRDNSKNTLYLQMNSLRAEDTAVYYCARTIHGIRAAYDAFIIWGQGTLVTVSS
VL: EIVLTQSPGTLSLSPGERATLSCRASQSVGINLSWYQQKPGQAPRLLIYGASHRLTGIPDRFSGSGSGTDFTLTISRLEPEDFAVYYCHQYSQPPPFTFGGGTKVEIKR
notes: Derived from Antibody 54 by engineering to reduce potential immunogenicity; expressed in CHO cells; also called Ab 43; Exemplified Antibody
For the molecule B1, the “IC50 in the in vitro NFκB-GEC-luciferase activity assay” value with Cynomolgus monkey IL-33 [3] is 1920 pM; with Human IL-33 [4] it was 330 pM. Moreover, the “IC50 of inhibition of IL-33-induced GM-CSF secretion from human mast cells” value with Human IL-33 [5] amounted to 300 pM. The dissociation constant (Kd) in the experiment with Cynomolgus monkey IL-33 [6] is 338 pM; with Human IL-33 [7], 49 pM. Besides, the koff with Cynomolgus monkey IL-33 [6] was 0.00051 s⁻¹; with Human IL-33 [7] it was 7.2e-05 s⁻¹. Also, the association rate constant (kon) in the experiment with Cynomolgus monkey IL-33 [6] and with Human IL-33 [7] was 1.5e+06 M⁻¹ s⁻¹ each time. For the same molecule, the binding result with IL-18, with IL-36γ, with IL-1RA, with IL-36β, with IL-37 and with IL-36α was “no binding (tested: 500 nM)” in each case. In addition, the binding result with IL-1α, with IL-1β and in the experiment with IL-36RA was “no binding (tested: 500 nM)” in each case.

B2: Antibody 75 (antibody, human IgG4 S228P, kappa, F234A L235A, V domains shown)
VH: B1 VH with F31S, I100L
VL: B1 VL with L55A, P94S
notes: Human IgG4 antibody; 3-53 heavy chain framework and A27 light chain framework with the CDRs of Antibody 23; also called Ab 75
Regarding B2, the “IC50 in the in vitro NFκB-GEC-luciferase activity assay” value with Human IL-33 [4] was found to be 286 pM. In the experiment with Cynomolgus monkey IL-33 [8], this molecule gave a Kd of 12400 pM, a dissociation rate constant (koff) of 0.019 s⁻¹ and a kon of 1.7e+06 M⁻¹ s⁻¹. Moreover, in the experiment with Human IL-33 [9], the dissociation constant Kd is 14.5 pM, the dissociation rate constant (koff) stood at 2.6e-05 s⁻¹ and the on-rate constant (kon) worked out at 1.7e+06 M⁻¹ s⁻¹. Besides, the “fold difference in species cross-reactivity (affinity to cynomolgus IL-33 against human IL-33)” value in the experiment with Cynomolgus monkey IL-33 [10] was about 850 fold.

For the origin of these results see patent US20180118821A1 (Eli Lilly, published 2018).
